Assay results taken from publication doi:10.1101/2020.11.27.401935.

Legend:
[1] = molecular target: S. cerevisiae cytochrome c oxidase (complex IV), CIV (S. cerevisiae (endogenous in strain BY 4741)) (UniProt P00427)
[2] = molecular target: S. cerevisiae CIII2CIV1/2 respiratory supercomplex (S. cerevisiae (endogenous in strain BY 4741)) (UniProt P07143); experiment: cryo-EM structure
[3] = molecular target: S. cerevisiae cytochrome c oxidase (complex IV), CIV (S. cerevisiae (endogenous in strain BY 4741)) (UniProt P00427); experiment: cryo-EM structure

Sequence of UniProt P00427 (P00427 whole entry, looked up, one chain of several): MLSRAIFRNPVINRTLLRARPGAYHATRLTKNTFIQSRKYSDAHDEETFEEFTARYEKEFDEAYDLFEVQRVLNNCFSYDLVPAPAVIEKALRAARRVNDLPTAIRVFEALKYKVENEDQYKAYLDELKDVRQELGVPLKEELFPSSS
Sequence of UniProt P07143 (P07143 whole entry, looked up, one chain of several): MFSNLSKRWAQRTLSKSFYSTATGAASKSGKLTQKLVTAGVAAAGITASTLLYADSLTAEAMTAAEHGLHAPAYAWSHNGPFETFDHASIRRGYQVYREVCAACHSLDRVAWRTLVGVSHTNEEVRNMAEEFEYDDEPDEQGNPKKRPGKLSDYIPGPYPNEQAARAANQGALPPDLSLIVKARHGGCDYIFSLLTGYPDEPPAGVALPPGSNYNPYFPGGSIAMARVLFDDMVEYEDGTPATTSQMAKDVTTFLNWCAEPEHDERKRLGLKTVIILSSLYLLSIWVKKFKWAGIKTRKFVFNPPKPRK

cyt. c:O2 oxidoreductase activity of isolated CIV at a cyt. c:CIV ratio of one [1]: 3 e^-/s
stoichiometry N [2]: 1
cyt. c occupancy from integrated density (map with cyt. c at CIV) [3]: 1
percent of particle images with cyt. c bound at CIV [3]: 33%
Substance: S. cerevisiae cytochrome c (isoform-1 cyt. c) (from UniProt P00044 1-109) (natural protein)
